For one molecule, percent of input pulled down results are on record in article PMC4632715.

This assay addresses FN3 monobody 2C12 (binder of MAP2K5), purified FLAG-tagged protein. In words: pull-down; 1 pmol each of four purified biotinylated targets spiked into HeLa cell lysate (10 µg), 10 pmol purified FLAG-tagged monobody, 2 h 4 °C; captured on anti-FLAG magnetic beads, RIPA washes; blot probed with streptavidin-IR dye.

B1: mitogen-activated protein kinase kinase 5 (MAP2K5), amino acids 5-108 (domain or fragment)
chain: ALGPFPAMENQVLVIRIKIPNSGAVDWTVHSGPQLLFRDVLDVIGQVLPEATTTAFEYEDEDGDRITVRSDEEMKAMLSYYYSTVMEQQVNGQLIEPLQIFPRA
modifications: biotin (Avitag, in vivo); a non-biotinylated form served as soluble competitor
In turn, B1 returned a percent of input pulled down of 33%.
